Assay results: patent publication US20060240510A1, “Method for designing peptides” (CTT Cancer Targeting Technologies OY, priority 2002, published 2006)
Read-outs that look alike come from different tables or passages of the source. Where a SMILES comes first, the peptide text is derived from it. Bridges are numbered along the chain shown (N, C = ends). Where no end group is shown, it is not given here.

Columns and labels:
[1] = Peptide stability in human serum; type: in vitro ADME; conditions: undiluted human serum, 37° C., anti-CTT antibody dot blot
Protocol: (§1) FIG. 3A and 3B. Activity and stability of the tryptophan analogue containing CTT peptides. (A) Inhibition of MMP-2 using β-casein (21 IcDa) as substrate. The peptides (100 μM) were incubated with MMP-2 and β-casein (0.1 mg/ml) for 2 h and samples run on a 15% SDS-PAGE gel. (B) iCTT, 5F-CTT or a negative control peptide CERGGLETSC at a 150 μM concentration was incubated in undiluted human serum for the indicated time periods at 37° C. Samples were withdrawn, stored frozen and blotted on a nitrocellulose membrane. The level of CTT was quantitated using polyclonal anti-CTT antibody. The blots were scanned and the results shown are means ±SD from triplicate measurements. The results were similar in two other experiments.
Spectrometry and fluorometry. The absorbance spectrum for each peptide in the 200-375 nm range was measured in 20 mM Tris-HCl (pH 7.4)/50 mM NaCl/0.1 mM EDTA with Genesys 5 spectrophotometer (Thermo Spectronic, Rochester, N.Y.). The fluorescence spectra of the CTT phage cultured in the presence of tryptophan, 5FW or 6FW were measured from heat-denatured phages (2×10^9/ml) in 10 mM Tris-HCl (pH 7.5)/140 mM NaCl/1% SDS. The fluorescence emission spectra (average of three scans) at 300-500 nm were recorded with MOS-250 spectrofluorometer. The peptides were excited at 295 nm (bandwidth 5 nm) and the emission spectra recorded in the 300-500 nm range. Peptide stability in human serum. […]

[2] = Peptide stability in cell culture medium; type: in vitro ADME; conditions: cell culture medium with 10% heat-inactivated fetal calf serum
Protocol: The gelatinase inhibitory activities of the modified CTT peptides were tested in the β-casein degradation assay (FIG. 3A) and the gelatin degradation assay (data not shown). […] To determine the peptide levels, we used anti-CTT antibody that also recognized the 5F-Trp containing peptide. […] We could not determine the half-lives of 5OH-Trp and 6F-Trp containing peptides as the anti-CTT antibody recognized these peptides only weakly in the presence of serum.

[3] = biological target: T1, MMP-2 (Homo sapiens, UniProt P08253); experiment: Gelatin degradation assay (biotinylated gelatin), MMP-2; type: biochemical
T1 construct: purchased Roche
T1 sequence (P08253 110-660): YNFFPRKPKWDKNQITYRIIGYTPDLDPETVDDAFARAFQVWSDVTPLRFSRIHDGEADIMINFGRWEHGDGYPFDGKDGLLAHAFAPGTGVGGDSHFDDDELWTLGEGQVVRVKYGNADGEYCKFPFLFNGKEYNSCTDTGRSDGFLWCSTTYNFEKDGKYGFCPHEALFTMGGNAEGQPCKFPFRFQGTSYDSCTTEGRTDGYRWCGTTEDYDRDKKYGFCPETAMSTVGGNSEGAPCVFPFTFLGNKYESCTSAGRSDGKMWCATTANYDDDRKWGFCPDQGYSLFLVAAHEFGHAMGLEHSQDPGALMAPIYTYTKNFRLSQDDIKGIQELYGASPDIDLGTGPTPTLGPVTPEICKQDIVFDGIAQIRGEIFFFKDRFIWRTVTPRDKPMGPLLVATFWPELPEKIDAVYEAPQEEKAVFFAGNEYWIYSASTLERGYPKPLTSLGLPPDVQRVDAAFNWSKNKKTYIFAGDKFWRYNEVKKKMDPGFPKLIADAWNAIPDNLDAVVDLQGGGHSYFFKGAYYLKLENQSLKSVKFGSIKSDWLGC
Protocol: (§2) FIG. 1A and 1B. Inhibition of NWP-2 and MMP-9 by synthetic or intein-produced peptides. (A) MMP-9 was treated with CTT, iCTT, or STT at the peptide concentrations indicated. MMP-9 activity was determined using biotinylated gelatin. (13) The activity of the alanine mutant peptides (see Table 1) was compared to that of CTT, which inhibited MMP-2 by 100% in the gelatin degradation assay. In all assays the peptides were preincubated with the enzyme for 30 min before the substrate was added.
(§3) Gelatinase inhibition assays. Gelatiases proMMP-2 and proMMP-9 (Roche) were activated with p-aminophenylmercuric acetate or trypsin, respectively, and then incubated in the presence or absence of each peptide to be tested for 30 min. The gelatinase inhibitory activity was determined using the following three assays: (i) The degradation of biotinylated gelatin was examined using a gelatinase activity kit according to the manufacturer's instructions. (Roche). (ii) The degradation of a MMP-2 specific fluorescent peptide substrate MCA-Pro-Leu-Ala-Nva-Dpa-Ala-Arg-NH2 (Calbiochem) (2.5 μM final concentration) was followed using MOS-250 spectrofluorometer (Bio-Logic SA, Claix, France) with 330 nm excitation and 390 nm emission. (iii) The degradation of β-casein was studied by incubating activated MMP-2 with 0.1 mg/ml concentration of β-casein for 2 h at 37° C., after which the samples were analyzed on a 15% SDS-PAGE gel.

[4] = biological target: T2, MMP-9 (Homo sapiens, UniProt P14780); experiment: Gelatin degradation assay (biotinylated gelatin), MMP-9; type: biochemical
T2 construct: purchased Roche
Protocol: as §2
as §3, with “(ii) The degradation of a MMP-2 specific fluorescent peptide substrate MCA-Pro-Leu-Ala-Nva-Dpa-Ala-Arg-NH2 (Calbiochem) (2.5 μM final concentration) was followed using MOS-250 spectrofluorometer (Bio-Logic SA, Claix, France) with 330 nm excitation and 390 nm emission.” left out

[5] = Solubility in water / PBS
Protocol: The oligonucleotide was made double-stranded using PCR. The PCR product was digested with PstI and SapI and cloned to TWIN2 intein vector (New England Biolabs), digested also with PstI and SapI. This DNA construct was electroporated into MC1061 competent cells. […] The plasmid vectors were extracted from the pool of at least 216 independent clones of MC1061. The plasmids were then electroporated to ER2566 cells enabling the production of inteins. The cells harboring the plasmids were plated on LB plates containing ampicillin. 10 independent clones were pooled to one single pool. These 10 clones in one pool were cultured and the peptides were expressed and purified with chitin affinity column and reverse-phase C18 column. Each pool of peptides was tested for activity. The solubility in PBS was also tested. […] The plasmid coding for this peptide was sequenced and the peptide was synthesized with chemical synthesis.

[6] = biological target: T1, MMP-2; experiment: β-casein degradation assay; type: biochemical; conditions: peptide 100 μM; β-casein 0.1 mg/ml, 2 h
Protocol: as §1
as §3, with “(ii) The degradation of a MMP-2 specific fluorescent peptide substrate MCA-Pro-Leu-Ala-Nva-Dpa-Ala-Arg-NH2 (Calbiochem) (2.5 μM final concentration) was followed using MOS-250 spectrofluorometer (Bio-Logic SA, Claix, France) with 330 nm excitation and 390 nm emission.” left out

[7] = biological target: T3, gelatinase A (MMP-2) (Homo sapiens, UniProt P08253); experiment: Inhibition of gelatinase A by hydrophilic CTT library peptides; type: biochemical; conditions: FIG. 5
T3 construct: purchased Roche
T3 sequence (P08253 110-660): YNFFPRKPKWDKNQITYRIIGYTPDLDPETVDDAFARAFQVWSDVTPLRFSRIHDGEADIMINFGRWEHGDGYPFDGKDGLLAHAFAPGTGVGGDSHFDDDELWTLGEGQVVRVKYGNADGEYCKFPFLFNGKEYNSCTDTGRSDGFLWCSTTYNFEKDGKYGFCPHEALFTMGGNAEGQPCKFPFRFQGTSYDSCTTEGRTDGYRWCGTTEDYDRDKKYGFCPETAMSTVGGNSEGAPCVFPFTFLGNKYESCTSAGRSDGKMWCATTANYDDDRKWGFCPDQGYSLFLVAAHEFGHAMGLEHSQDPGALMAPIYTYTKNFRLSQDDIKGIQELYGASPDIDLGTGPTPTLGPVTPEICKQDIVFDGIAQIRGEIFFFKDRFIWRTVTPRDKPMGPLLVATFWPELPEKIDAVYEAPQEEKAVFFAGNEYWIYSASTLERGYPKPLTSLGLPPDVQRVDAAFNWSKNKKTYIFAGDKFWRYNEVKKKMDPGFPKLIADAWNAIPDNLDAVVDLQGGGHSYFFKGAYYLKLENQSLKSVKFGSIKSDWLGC
From the text: FIG. 5. Inhibition of gelatiaase A (MMP-2) with CTT-peptide, with pool 1 and pool 2, both containing 10 different peptide derivates of CTT. The library contains 216 different combinations of CTT peptide derivates. Clone 4 from pool 1 and clone 7 from pool 2 were purified and tested also for their inhibition activity against gelatinase A.
as §3
The oligonucleotide was made double-stranded using PCR. […] This DNA construct was electroporated into MC1061 competent cells. […]

[8] = biological target: T4, MMP-2 (gelatinase A), activated (UniProt P08253 30-660, limits assumed); experiment: cell-based or functional assay
T4 sequence (looked up): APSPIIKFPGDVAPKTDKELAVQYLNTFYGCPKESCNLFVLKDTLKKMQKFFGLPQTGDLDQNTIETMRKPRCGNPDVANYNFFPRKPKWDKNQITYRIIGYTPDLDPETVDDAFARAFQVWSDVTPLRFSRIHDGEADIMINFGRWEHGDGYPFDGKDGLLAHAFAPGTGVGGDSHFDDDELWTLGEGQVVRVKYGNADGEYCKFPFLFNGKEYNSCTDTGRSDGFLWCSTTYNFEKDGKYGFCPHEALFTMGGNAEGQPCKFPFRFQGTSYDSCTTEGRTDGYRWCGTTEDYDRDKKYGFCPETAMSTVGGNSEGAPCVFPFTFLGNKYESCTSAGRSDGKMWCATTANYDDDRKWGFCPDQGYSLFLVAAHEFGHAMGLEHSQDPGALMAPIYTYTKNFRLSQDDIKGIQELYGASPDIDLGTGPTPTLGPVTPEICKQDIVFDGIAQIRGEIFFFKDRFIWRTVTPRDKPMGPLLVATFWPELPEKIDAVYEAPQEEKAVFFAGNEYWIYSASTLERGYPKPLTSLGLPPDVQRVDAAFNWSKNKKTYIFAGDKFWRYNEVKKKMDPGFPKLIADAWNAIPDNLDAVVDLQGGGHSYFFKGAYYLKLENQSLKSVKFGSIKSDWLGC

[9] = biological target: MMP-9, activated (UniProt P14780 20-707, limits assumed); experiment: cell-based or functional assay
Sequence of MMP-9, activated (P14780 20-707 limits assumed): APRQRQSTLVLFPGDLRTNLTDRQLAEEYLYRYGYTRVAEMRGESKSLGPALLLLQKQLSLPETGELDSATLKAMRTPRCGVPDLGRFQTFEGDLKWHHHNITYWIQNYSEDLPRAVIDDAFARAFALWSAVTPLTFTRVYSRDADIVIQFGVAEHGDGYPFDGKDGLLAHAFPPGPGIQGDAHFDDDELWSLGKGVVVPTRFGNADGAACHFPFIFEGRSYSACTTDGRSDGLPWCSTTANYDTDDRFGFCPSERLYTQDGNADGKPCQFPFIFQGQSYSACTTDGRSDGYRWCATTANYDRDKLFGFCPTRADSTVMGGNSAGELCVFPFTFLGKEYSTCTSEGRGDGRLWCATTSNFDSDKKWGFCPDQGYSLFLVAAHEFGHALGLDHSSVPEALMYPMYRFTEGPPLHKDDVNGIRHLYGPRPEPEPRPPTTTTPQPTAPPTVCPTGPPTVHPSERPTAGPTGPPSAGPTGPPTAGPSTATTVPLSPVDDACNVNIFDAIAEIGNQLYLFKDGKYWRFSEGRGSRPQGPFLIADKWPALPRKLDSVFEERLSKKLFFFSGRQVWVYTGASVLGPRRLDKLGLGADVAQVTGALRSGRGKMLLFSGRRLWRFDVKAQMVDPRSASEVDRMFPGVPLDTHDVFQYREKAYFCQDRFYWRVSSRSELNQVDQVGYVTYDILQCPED

T2 sequence (P14780 107-707 limits assumed): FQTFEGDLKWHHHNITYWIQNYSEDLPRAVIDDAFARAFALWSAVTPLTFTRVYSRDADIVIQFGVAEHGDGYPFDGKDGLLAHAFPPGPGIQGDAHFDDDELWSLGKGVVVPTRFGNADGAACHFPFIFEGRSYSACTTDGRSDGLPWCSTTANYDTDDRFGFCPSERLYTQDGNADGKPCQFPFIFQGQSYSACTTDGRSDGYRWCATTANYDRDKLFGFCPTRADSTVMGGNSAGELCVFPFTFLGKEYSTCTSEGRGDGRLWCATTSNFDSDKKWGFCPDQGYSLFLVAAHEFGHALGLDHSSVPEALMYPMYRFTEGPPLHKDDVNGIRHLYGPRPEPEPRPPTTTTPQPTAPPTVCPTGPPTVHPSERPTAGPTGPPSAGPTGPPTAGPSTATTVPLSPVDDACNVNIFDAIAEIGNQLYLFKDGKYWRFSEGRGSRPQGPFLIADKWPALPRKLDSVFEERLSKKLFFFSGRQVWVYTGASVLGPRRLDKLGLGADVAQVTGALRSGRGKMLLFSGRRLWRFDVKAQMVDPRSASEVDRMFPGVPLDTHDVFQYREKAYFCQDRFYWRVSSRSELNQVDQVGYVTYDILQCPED

## CC(C)C[C@@H]1NC(=O)[C@H]([C@@H](C)O)NC(=O)[C@H](Cc2ccccc2)NC(=O)CNC(=O)[C@H](Cc2c[nH]c3ccc(F)cc23)NC(=O)[C@H](Cc2c[nH]cn2)NC(=O)[C@H]([C@@H](C)O)NC(=O)[C@H]([C@@H](C)O)NC(=O)[C@@H](N)CSSC[C@@H](C(=O)O)NC1=O [5F-Trp containing peptide, CTTH(5FW)GFTLC] (HELM PEPTIDE1{C.T.T.H.[O=C([C@H](Cc1c[nH]c2ccc(F)cc12)N[*:1])[*:2]].G.F.T.L.C}$PEPTIDE1,PEPTIDE1,1:R3-10:R3$$$V2.0; N-terminus and C-terminus assumed)
[1]
  half-life at 150 μM: 3 h
[2]
  stability compared with CTT: No difference

## CC(C)C[C@@H]1NC(=O)[C@H]([C@@H](C)O)NC(=O)[C@H](Cc2ccccc2)NC(=O)CNC(=O)[C@H](Cc2c[nH]c3ccccc23)NC(=O)[C@H](Cc2c[nH]cn2)NC(=O)[C@H]([C@@H](C)O)NC(=O)[C@H]([C@@H](C)O)NC(=O)[C@@H](N)CSSC[C@@H](C(=O)O)NC1=O [CTT, CTTHWGFTLC] (HELM PEPTIDE1{C.T.T.H.W.G.F.T.L.C}$PEPTIDE1,PEPTIDE1,1:R3-10:R3$$$V2.0; bridges inferred)
[3]; 30 min preincubation, read-out: IC50, MMP-2 inhibition
  IC50: 20 µM
[3]; FIG. 1B
  inhibition of MMP-2: 100%
[4]; 30 min preincubation, read-out: IC50, MMP-9 inhibition
  IC50: 20 µM
[5]
  solubility: water-soluble

## CC(C)C[C@@H]1NC(=O)[C@H]([C@@H](C)O)NC(=O)[C@H](Cc2ccccc2)NC(=O)CNC(=O)[C@H](Cc2c[nH]c3ccccc23)NC(=O)[C@H](Cc2c[nH]cn2)NC(=O)[C@H]([C@@H](C)O)NC(=O)[C@H]([C@@H](C)O)NC(=O)[C@@H](N)CSSC[C@@H](C(=O)O)NC1=O [iCTT, CTTHWGFTLC] (HELM PEPTIDE1{C.T.T.H.W.G.F.T.L.C}$PEPTIDE1,PEPTIDE1,1:R3-10:R3$$$V2.0; N-terminus and C-terminus assumed)
[6]
  inhibition of casein degradation by MMP-2: nearly complete inhibition
[1]
  half-life at 150 μM: 0.5 h

## CTTAWGFTLC (disulfide 1-10 (inferred)) [H→A, Ala-substitution of the CTT-peptide]
[3]; FIG. 1B, CTT = 100% inhibition
  % of the activity in comparison to the wild type peptide: about 80%

## GRENYHGCTTRWGFTLC [tyrosine-containing CTT-peptide with additional hydrophilic amino acids, from the intein library]
[5]; water or PBS
  solubility: more soluble into water or PBS than the original peptide
[7]
  gelatinase A inhibitory activity: active

## STTHWGFTLS [non-cyclic synthetic control peptide]
[4]; FIG. 1A
  gelatinase inhibitory activity relative to iCTT: several fold less active than iCTT

B1: W → A alanine mutant of CTT (peptide)
peptide: CTTHAGFTLC
modifications: disulfide 1-10 (inferred)
[8]
  activity in comparison to the wild type peptide, gelatin degradation assay: 17 % of the activity of the wild type peptide

B2: iCTT: recombinant CTTHWGFTLC peptide (peptide)
peptide: CTTHWGFTLC
modifications: disulfide 1-10 (inferred)
[8]
  IC50, gelatin degradation assay: 20 µM
[9]
  IC50, gelatin degradation assay: 20 µM

B3: F → A alanine mutant of CTT (peptide)
peptide: CTTHWGATLC
modifications: disulfide 1-10 (inferred)
[8]
  activity in comparison to the wild type peptide, gelatin degradation assay: 36 % of the activity of the wild type peptide

B4: G → A alanine mutant of CTT (peptide)
peptide: CTTHWAFTLC
modifications: disulfide 1-10 (inferred)
[8]
  activity in comparison to the wild type peptide, gelatin degradation assay: 53 % of the activity of the wild type peptide

B5: CTT: CTTHWGFTLC peptide (chemically synthesized) (peptide)
peptide: CTTHWGFTLC
modifications: disulfide 1-10 (inferred)
[8]
  IC50, gelatin degradation assay: 20 µM
[9]
  IC50, gelatin degradation assay: 20 µM
